# From article PMC3566775
# Molecular target: Mouse SR-BI CGG mutant (positions 321-323) (mouse) (UniProt Q61009)
# Test: radioligand binding
substance,measurement,value
"Human high density lipoprotein (HDL), labeled with 125I (complex)",reduction in binding compared to the WT receptor,20%
